Experimental data published in the supplement of paper PMC11246515.
± gives the standard deviation of the averaged measurements.

Test: total protein half-life in vivo (active degradation + dilution); higher = more stable protein
[1] = E. coli NCM3722 delta-clpP delta-lon delta-hslV, growth: N-lim chemostat, doubling time 6 h
[2] = E. coli NCM3722 delta-clpP, growth: N-lim chemostat, doubling time 6 h
[3] = E. coli NCM3722 delta-hslV, growth: N-lim chemostat, doubling time 6 h
[4] = E. coli NCM3722 delta-lon, growth: N-lim chemostat, doubling time 6 h
[5] = E. coli NCM3722 delta-smpB, growth: N-lim chemostat, doubling time 6 h
[6] = wild type E. coli NCM3722, growth: C-lim chemostat, doubling time 3 h
[7] = wild type E. coli NCM3722, growth: C-lim chemostat, doubling time 6 h
[8] = wild type E. coli NCM3722, growth: C-lim chemostat, doubling time 12 h
[9] = wild type E. coli NCM3722, growth: N-lim chemostat, doubling time 6 h
[10] = wild type E. coli NCM3722, growth: N-lim chemostat, doubling time 12 h
[11] = wild type E. coli NCM3722, growth: P-lim chemostat, doubling time 6 h
[12] = wild type E. coli NCM3722, growth: P-lim chemostat, doubling time 12 h

Sequence | total protein half-life in vivo [1] [h] | total protein half-life in vivo [2] [h] | total protein half-life in vivo [3] [h] | total protein half-life in vivo [4] [h] | total protein half-life in vivo [5] [h] | total protein half-life in vivo [6] [h] | total protein half-life in vivo [7] [h] | total protein half-life in vivo [8] [h] | total protein half-life in vivo [9] [h] | total protein half-life in vivo [10] [h] | total protein half-life in vivo [11] [h] | total protein half-life in vivo [12] [h]
MKHLHRFFSSDASGGIILIIAAILAMIMANSGATSGWYHDFLETPVQLRVGSLEINKNMLLWINDALMAVFFLLVGLEVKRELMQGSLASLRQAAFPVIAAIGGMIVPALLYLAFNYADPITREGWAIPAATDIAFALGVLALLGSRVPLALKIFLMALAIIDDLGAIIIIALFYTNDLSMASLGVAAVAIAVLAVLNLCGARRTGVYILVGVVLWTAVLKSGVHATLAGVIVGFFIPLKEKHGRSPAKRLEHVLHPWVAYLILPLFAFANAGVSLQGVTLDGLTSILPLGIIAGLLIGKPLGISLFCWLALRLKLAHLPEGTTYQQIMVVGILCGIGFTMSIFIASLAFGSVDPELINWAKLGILVGSISSAVIGYSWLRVRLRPSV | 6.65 | 6.24 ± 0.42 | 5.55 ± 0.066 | 5.75 ± 0.5 | 6.42 ± 0.43 | 3.69 | 5.22 ± 1.9 | 12 | 5.7 ± 0.59 | 11.7 ± 0.19 | 5.867 ± 0.035 | 10.6 ± 2
MRKFIFVLLTLLLVSPFSFAMKGIIWQPQNRDSQVTDTQWQGLMSQLRLQGFDTLVLQWTRYGDAFTQPEQRTLLFKRAAAAQQAGLKLIVGLNADPEFFMHQKQSSAALESYLNRLLAADLQQARLWSAAPGITPDGWYISAEIDDLNWRSEAARQPLLTWLNNAQRLISDVSAKPVYISSFFAGNMSPDGYRQLLEHVKATGVNVWVQDGSGVDKLTAEQRERYLQASADCQSPAPASGVVYELFVAGKGKTFTAKPKPDAEIASLLAKRSSCGKDTLYFSLRYLPVAHGILEY | 5.13 ± 0.23 | 6.05 ± 0.4 |  | 6.25 ± 0.24 | 5.08 ± 1.3 |  | 6.17 ± 0.52 |  | 5.78 ± 0.16 | 11.8 ± 1.6 | 5.96 ± 0.13 | 12.5 ± 0.58
MNTRWQQAGQKVKPGFKLAGKLVLLTALRYGPAGVAGWAIKSVARRPLKMLLAVALEPLLSRAANKLAQRYKR [P0AFV8] | 3.32 ± 0.39 |  |  |  |  |  |  |  |  |  |  | 
MKAFWRNAALLAVSLLPFSSANALALQAKQYGDFDRYVLALSWQTGFCQSQHDRNRNERDECRLQTETTNKADFLTVHGLWPGLPKSVAARGVDERRWMRFGCATRPIPNLPEARASRMCSSPETGLSLETAAKLSEVMPGAGGRSCLERYEYAKHGACFGFDPDAYFGTMVRLNQEIKESEAGKFLADNYGKTVSRRDFDAAFAKSWGKENVKAVKLTCQGNPAYLTEIQISIKADAINAPLSANSFLPQPHPGNCGKTFVIDKAGY | 5.86 ± 0.29 |  | 6.73 ± 0.69 | 6.91 ± 0.17 | 5.96 ± 0.5 | 2.91 ± 0.23 | 6.59 ± 1.8 |  | 5.72 ± 0.6 | 12.8 ± 0.28 | 5.74 ± 0.09 | 
MLDKLRSRIVHLGPSLLSVPVKLTPFALKRQVLEQVLSWQFRQALDDGELEFLEGRWLSIHVRDIDLQWFTSVVNGKLVVSQNAQADVSFSADASDLLMIAARKQDPDTLFFQRRLVIEGDTELGLYVKNLMDAIELEQMPKALRMMLLQLADFVEAGMKTAPETKQTSVGEPC | 3.71 ± 1.3 | 2.5 |  |  | 0.825 ± 0.014 | 0.352 ± 0.048 |  |  |  |  | 0.825 | 
MSHRRSTVKGSLSFANPTVRAWLFQILAVVAVVGIVGWLFHNTVTNLNNRGITSGFAFLDRGAGFGIVQHLIDYQQGDTYGRVFIVGLLNTLLVSALCIVFASVLGFFIGLARLSDNWLLRKLSTIYIEIFRNIPPLLQIFFWYFAVLRNLPGPRQAVSAFDLAFLSNRGLYIPSPQLGDGFIAFILAVVMAIVLSVGLFRFNKTYQIKTGQLRRTWPIAAVLIIGLPLLAQWLFGAALHWDVPALRGFNFRGGMVLIPELAALTLALSVYTSAFIAEIIRAGIQAVPYGQHEAARSLGLPNPVTLRQVIIPQALRVIIPPLTSQYLNIVKNSSLAAAIGYPDMVSLFAGTVLNQTGQAIETIAMTMSVYLIISLTISLLMNIYNRRIAIVER |  |  | 3.79 |  |  |  |  |  | 4.44 ± 0.14 | 6.58 |  | 
MKRLLILTALLPFVGFAQPINTLNNPNQPGYQIPSQQRMQTQMQTQQIQQKGMLNQQLKTQTQLQQQHLENQINNNSQRVLQSQPGERNPARQQMLPNTNGGMLNSNRNPDSSLNQQHMLPERRNGDMLNQPSTPQPDIPLKTIGP [P0ADX7] | 5.56 |  |  | 4.65 | 3.81 |  |  |  |  | 7.44 |  | 
MEKNSLFSQRIRLRHLHTFVAVAQQGTLGRAAETLNLSQPALSKTLNELEQLTGARLFERGRQGAQLTLPGEQFLTHAVRVLDAINTAGRSLHRKEGLNNDVVRVGALPTAALGILPSVIGQFHQQQKETTLQVATMSNPMILAGLKTGEIDIGIGRMSDPELMTGLNYELLFLESLKLVVRPNHPLLQENVTLSRVLEWPVVVSPEGTAPRQHSDALVQSQGCKIPSGCIETLSASLSRQLTVEYDYVWFVPSGAVKDDLRHATLVALPVPGHGAGEPIGILTRVDATFSSGCQLMINAIRKSMPF | 5.7 ± 0.088 | 2.66 ± 1.2 | 2.014 ± 0.017 | 4.21 ± 0.12 | 1.61 ± 0.065 | 1.77 ± 0.26 | 3.159 ± 0.0044 | 4.49 ± 0.46 | 2.01 ± 0.12 | 2.5 ± 0.039 | 2.67 ± 0.7 | 3.86 ± 0.13
MEMLSGAEMVVRSLIDQGVKQVFGYPGGAVLDIYDALHTVGGIDHVLVRHEQAAVHMADGLARATGEVGVVLVTSGPGATNAITGIATAYMDSIPLVVLSGQVATSLIGYDAFQECDMVGISRPVVKHSFLVKQTEDIPQVLKKAFWLAASGRPGPVVVDLPKDILNPANKLPYVWPESVSMRSYNPTTTGHKGQIKRALQTLVAAKKPVVYVGGGAITAGCHQQLKETVEALNLPVVCSLMGLGAFPATHRQALGMLGMHGTYEANMTMHNADVIFAVGVRFDDRTTNNLAKYCPNATVLHIDIDPTSISKTVTADIPIVGDARQVLEQMLELLSQESAHQPLDEIRDWWQQIEQWRARQCLKYDTHSEKIKPQAVIETLWRLTKGDAYVTSDVGQHQMFAALYYPFDKPRRWINSGGLGTMGFGLPAALGVKMALPEETVVCVTGDGSIQMNIQELSTALQYELPVLVVNLNNRYLGMVKQWQDMIYSGRHSQSYMQSLPDFVRLAEAYGHVGIQISHPHELESKLSEALEQVRNNRLVFVDVTVDGSEHVYPMQIRGGGMDEMWLSKTERT | 5.76 ± 1.1 | 5.31 ± 0.18 | 5.06 ± 0.41 | 5.03 ± 0.088 | 5.13 ± 0.46 | 3.03 ± 0.14 | 6.41 ± 0.94 | 11.1 ± 0.39 | 4.78 ± 0.1 | 8.81 ± 0.62 | 6.092 ± 0.014 | 12 ± 0.24
